Assays:
Format in all cases: biochemical, Z. mays
[1] = test system: 4-hydroxyphenylpyruvate dioxygenase (HPPD); test: Insensitivity parameter (ON × OFF) and trait fitness (ON × OFF × kcat/KM or × kcat); set-up: key to ON × OFF / Insensitivity, mesotrione, ON × OFF / Insensitivity, tembotrione, ON × OFF / Insensitivity, topramezone, ON × OFF / Insensitivity, sulcotrione, ON × OFF / Insensitivity, isoxaflutole (DKN), ON × OFF: insensitivity = ON rate ratio × OFF rate ratio (surrogate for KD)
From the text: Because substrate and inhibitors bind in the same site, the high concentration of substrate present may competitively trap the inhibitor and prevent it from binding again. To be sure that improvement in ON rates is being taken into account, the ON and OFF rate ratios were multiplied, creating an “insensitivity parameter” that is a surrogate for KD. KD is expressed as kOFF/kON, but because the ON rate ratio is an inverse parameter (the higher the value of ON rate ratio, the lower the value of the represented phenomenon, kON), it is appropriate to multiply ON and OFF rate ratios rather then divide OFF rate ratio by ON rate ratio. Another parameter, which quantifies the combined catalytic and insensitivity properties of the enzyme is kcat/KM×ON rate ratio×OFF rate ratio, and is termed “trait fitness”. This parameter is intended to have a meaning similar to the commonly used expression kcat/KM×Ki.

[2] = test system: 4-hydroxyphenylpyruvate dioxygenase (HPPD); test: Estimate of kcat from initial rate at saturating hydroxyphenylpyruvate without inhibitor (ON rate ratio assay)
From the text: (§1) Higher KD (reduced affinity or increased insensitivity) can be attained with a numerically smaller ON rate, a larger OFF rate or both. To detect and quantify changes in kON and kOFF, observations of the time course of an HPPD reaction as inhibitor binds to and inactivates the enzyme (kON), or is released from a pre-formed enzyme-inhibitor complex (kOFF) were used, as shown in FIGS. 13A and 13B. In practice, a quantitative indicator of kON was obtained by monitoring the time courses of HPPD reactions containing 60 or 120 nM HPPD and 100 μM HPP in the presence and absence of 4 μM inhibitor (e.g., mesotrione or tembotrione). The ratio of the reaction rate with inhibitor to that without inhibitor during the 70 to 90 second interval of the reaction was termed the “ON rate ratio”. The smaller the actual kON, the more slowly the HPPD reaction decelerates and the higher the value is for the ON rate ratio. FIGS. 13A and 13B illustrate the contrasting reaction velocity in the 70-90 sec interval for maize wild-type HPPD (FIG. 13A) versus an improved variant (SEQ ID NO:78) (FIG. 13B).
Thirty nine variants were desensitized to tembotrione compared with the backbone enzyme, Round 7, variant 9070 (SEQ ID NO:2) and all were desensitized compared with maize wild type HPPD (SEQ ID NO:1). Because the assay for ON rate ratio includes an initial rate measurement at saturating hydroxyphenylpyruvate without inhibitor and with known enzyme concentration, an estimate of kcat was available. Taking into account kcat and insensitivity parameters, 30 variants were selected for measurement of substrate saturation kinetic parameters and re-evaluation of insensitivity to tembotrione. The kinetic and insensitivity parameters were determined as described in Example 1, and were multiplied to generate the “trait fitness” parameter. The complete list of variants, i.e., of selected single substitutions in SEQ ID NO:2, analyzed with multiple inhibitors and the results obtained are shown in Table 6. The same set of 30 variants were evaluated for insensitivity to mesotrione, sulcotrione, isoxaflutole (its active diketonitrile form, abbreviated DKN in Table 6) and topramezone.

[3] = test system: 4-hydroxyphenylpyruvate dioxygenase (HPPD); test: ON rate ratio: HPPD reaction rate with vs without inhibitor in the 70 to 90 second interval; conditions: Table 7; tembotrione; combinatorial variants
From the text: as §1

[4] = test system: 4-hydroxyphenylpyruvate dioxygenase (HPPD); test: OFF rate ratio: release of inhibitor from pre-formed enzyme-inhibitor complex; conditions: Table 7; tembotrione; combinatorial variants
Experimental: A quantitative indicator of kOFF can be obtained by observing the time course of an HPPD reaction as inhibitor is released from a pre-formed enzyme-inhibitor complex. HPPD and inhibitor were incubated together at concentrations of 7.2 and 8 μM, respectively. Incubations with the same concentrations of enzyme but no inhibitor were done in parallel. After 1 hr at room temperature, 5 to 10 μl of the enzyme-inhibitor complex was dispensed into the wells of the assay plate. Reactions were started with the addition of 290 to 295 μl of 25 mM Hepes, pH 7, 2 mM ascorbate, 10 μM FeSO4, 100 μM HPP and 50 nM HGD. The reactions were monitored at 320 nm for 12 min. Reaction velocity accelerates as inhibitor is released from the enzyme until a steady state is reached, during which the reaction velocity is constant. The ratio of the steady state rate in mixtures containing herbicidal inhibitor to the initial velocity of mixtures lacking inhibitor is termed the “OFF rate ratio”.
Another parameter to record is the time span required for the reactions with inhibitor to reach the steady state. FIGS. 13C and 13D illustrate the contrasting time span in which maize wild-type HPPD (FIG. 13C) and an improved variant (SEQ ID NO:78) (FIG. 13D) dissociated from mesotrione, as indicated by the accelerating reaction rates. The plateau of absorbance is due to exhaustion of the substrate. With the improved variant, not only was the steady state attained in a shorter time span (80 sec for the variant versus 280 sec for wild type), the velocity attained was twice as high as with wild type, though the enzymes were present at the same concentration (240 nM). This is because a larger fraction of the variant enzyme is free of inhibitor compared to the wild-type enzyme, and the kcat for both is nearly the same, about 220 min^−1.

[5] = Table 7, tembotrione, combinatorial variants
[6] = Table 7, combinatorial variants

ON × OFF ([1]; Megatable 3, shuffled variants)	ON × OFF [1, 5]	ON rate ratio [3]	OFF rate ratio [4]	Molecule	ON × OFF × kcat ([1]; Megatable 3, shuffled variants)	ON × OFF × kcat [1, 5]	kcat ([2]; Megatable 3, shuffled variants)	kcat [2, 6]
0.246	0.246	0.681	0.361	P056028-D-08 (protein, Zea mays variant form created by artificial means.) MGPTPTATAAGAAVAAASAAEQAAFRLVGHRNFVRFNPRSDRFQTLAFHHVELWCADAASAAGRFSFALGVPLAARSDLSTGNSAHASLLLRSGSLSLLFTAPYAHGADAATAALPSFSAAAARRFAADHGLAVRAVALRVADAEDAFRASVAAGARPAFGPVDLGRGFRLAEVELYGDVVLRYVSYPDGGAGEPFLPGFEGVASPGAADYGLSRFDHIVGNVPELAPAAAYMAGFTGFHEFAEFTTEDVGTTESGLNSMALANNSENVLLPLNEPVHGTKRRSQIQTFLDHHGGPGVQHIALASDDVLRTLREMRARSAMGGFEFLPPPLSDYYDGVRKCAGDVLTEAQINECQELGVMVDRDDEGVLLQIFTKPVGDRPTFFLEIIQRIGCMEKDEKGQEYQKGGCGGFGKGNFGQLFKSIEDYEKSLEAKRAAAAATAQGS	6.77	6.77	0.458 s⁻¹	0.458 s⁻¹
0.273	0.273	0.714	0.382	P056028-C-07 (protein, Zea mays variant form created by artificial means.) MGPTPTATAAGAAVAAASAAEQAAFRLVGHRNFVRFNPRSDRFQTLAFHHVELWCADAASAAGRFSFALGVPLAARSDLSTGNSAHASLLLRSGSLSLLFTAPYAHGADAATAALPSFSAAAARRFAADHGLAVRAVALRVADAEDAFRASVAAGARPAFGPVDLGRGFRLAEVELYGDVVLRYVSYPDGGAGEPFLPGFEGVASPGAADYGLSRFDHIVGNVPELAPAAAYMAGFTGFHEFAEFTTEDVGTTESGLNSMALANNSENVLLPLNEPVHGTKRRSQIQTFLDHHGGPGVQHIALASDDVLRTLREMRARSAMGGFEFLPPPLSDYYDGVRKCAGDVLTEAQINECQRLGVMVDRDDEGVLLQIFTKPVGDRPTFFLEIIQRIGCMEKDEKGQEYQKGGCGGFGKGNFGQLFKSIEDYEKSLEAKRAAAAATAQGS	5.80	5.80	0.353 s⁻¹	0.353 s⁻¹

Continued, molecule first:

Molecule	ON × OFF ([1]; Megatable 3, shuffled variants)	ON × OFF [1, 5]	ON rate ratio [3]	OFF rate ratio [4]	ON × OFF × kcat ([1]; Megatable 3, shuffled variants)	ON × OFF × kcat [1, 5]	kcat ([2]; Megatable 3, shuffled variants)	kcat [2, 6]
P056028-F-01 (protein, Zea mays variant form created by artificial means.) MGPTPTATAAGAAVAAASAAEQAAFRLVGHRNFVRFNPRSDRFQTLAFHHVELWCADAASAAGRFSFALGVPLAARSDLSTGNSAHASLLLRSGSLSLLFTAPYAHGADAATAALPSFSAAAARRFAADHGLAVRAVALRVADAEDAFRASVAAGARPAFGPVDLGRGFRLAEVELYGDVVLRYVSYPDGGAGEPFLPGFEGVASPGAADYGLSRFDHIVGNVPELAPAAAYMAGFTGFHEFAEFTTEDVGTTESGLNSMALANNSENVLLPLNEPVHGTKRRSQIQTFLDHHGGPGVQHIALASDDVLRTLREMRARSAMGGFEFLPPPLSDYYDGVRRCAGDVLTEAQINECQELGVMVDRDDEGVLLQIFTKPVGDRPTFFLEIIQRIGCMEKDEKGQEYQKGGCGGFGKGNFGQLFRSIEDYEKSLEAKRAAAAATAQGS	0.218	0.218	0.718	0.304	6.82	6.82	0.522 s⁻¹	0.522 s⁻¹
P056028-E-02 (protein, Zea mays variant form created by artificial means.) MGPTPTATAAGAAVAAASAAEQAAFRLVGHRNFVRFNPRSDRFQTLAFHHVELWCADAASAAGRFSFALGVPLAARSDLSTGNSAHASLLLRSGSLSLLFTAPYAHGADAATAALPSFSAAAARRFAADHGLAVRAVALRVADAEDAFRASVAAGARPAFGPVDLGRGFRLAEVELYGDVVLRYVSYPDGAAGEPFLPGFEGVASSGAADYGLSRFDHIVGNVPELAPAAAYMAGFTGFHEFAEFTTEDVGTTESGLNSMALANNSENVLLPLNEPVHGTKRRSQIQTFLDHHGGPGVQHIALASDDVLRTLREMRARSAMGGFEFLPPPLSDYYDGVRRCAGDVLTEAQINECQELGVMVDRDDEGVLLQIFTKPVGDRPTFFLEIIQRIGCMEKDEKGQEYQKGGCGGFGKGNFGQLFKSIEDYEKSLEAKQAAAAATAQGS	0.248	0.248	0.761	0.326	5.86	5.86	0.393 s⁻¹	0.393 s⁻¹
P056028-C-01 (protein, Zea mays variant form created by artificial means.) MGPTPTATAAGAAVAAASAAEQAAFRLVGHRNFVRFNPRSDRFQTLAFHHVELWCADAASAAGRFSFALGVPLAARSDLSTGNSAHASLLLRSGSLSLLFTAPYAHGADAATAALPSFSAAAARRFAADHGLAVRAVALRVADAEDAFRASVAAGARPAFGPVDLGRGFRLAEVELYGDVVLRYVSYPDGAAGEPFLPGFEGVASSGAADLGLSRFDHIVGNVPELAPAAAYMAGFTGFHEFAEFTTEDVGTTESGLNSMALANNSENVLLPLNEPVHGTKRRSQIQTFLDHHGGPGVQHIALASDDVLRTLREMRARSAMGGFEFLPPPLSDYYDGVRRCAGDVLTEAQINECQELGVMVDRDDEGVLLQIFTKPVGDRPTFFLEIIQRIGCMEKDEKGQEYQKGGCGGFGKGNFGQLFKSIEDYEKSLEAKQAAAAATAQGS	0.230	0.230	0.742	0.310	5.95	5.95	0.432 s⁻¹	0.432 s⁻¹
P056028-C-05 (protein, Zea mays variant form created by artificial means.) MGPTPTATAAGAAVAAASAAEQAAFRLVGHRNFVRFNPRSDRFQTLAFHHVELWCADAASAAGRFSFALGVPLAARSDLSTGNSAHASLLLRSGSLSLLFTAPYAHGADAATAALPSFSAAAARRFAADHGLAVRAVALRVADAEDAFRASVAAGARPAFGPVDLGRGFRLAEVELYGDVVLRYVSYPDGAAGEPFLPGFEGVASPGAADYGLSRFDHIVGNVPELAPAAAYMAGFTGFHEFAEFTTEDVGTTESGLNSMALANNSENVLLPLNEPVHGTKRRSQIQTFLDHHGGPGVQHIALASDDVLRTLREMRARSAMGGFEFLPPPLSDYYDGVRKCAGDVLTEAQINECQRLGVMVDRDDEGVLLQIFTKPVGDRPTFFLEIIQRIGCMEKDEKGQEYQKGGCGGFGKGNFGQLFKSIEDYEKSLEAKQAAAAATAQGS	0.268	0.268	0.715	0.375	5.80	5.80	0.362 s⁻¹	0.362 s⁻¹

From patent US11015206B2, “Compositions and methods comprising sequences having hydroxyphenylpyruvate dioxygenase (HPPD) activity” (PIONEER HI-BRED INTERNATIONAL, INC., priority 2014, dated 2021)
